Tests used:
[1] = biological target: T1, AMHR2-Fc/Fc, heterodimer of one AMHR2-Fc chain (extracellular domain of human AMHR2 fused to human IgG1 Fc) … (human, UniProt Q16671 18-149; P01857 104-330 = IgG part); test: ELISA; AMHR2-Fc/Fc (0.75 ug/ml) captured on goat antihuman Fc Ab coated on the plate; c-AMH or GF serially diluted, 2 to 4 h; bound AMH detected with biotinylated mAb-C1 (GF) or mAb-N1 (prodomain) and SA-HRP; data fit to the quadratic equation for a reversible association reaction; conditions: both partners purified
T1 construct: extracellular domain of human anti-Müllerian hormone receptor type-2 (AMHR2); Fc portion of human IgG1 (Ig gamma-1 chain constant region), the Fc-only chain; Functionally monovalent for AMHR2; also called soluble receptor; soluble AMHR2; source: human embryonic kidney 293E cells, purified from conditioned medium (Protein A Sepharose, size-exclusion chromatography); copies: 1 + 1

[2] = biological target: T2, BMP-7 prodomain biotinylated through amines (human, UniProt P18075 30-292, biotin through amines (EZ-Link NHS-PEG4-Biotin)); test: ELISA; BMP-7 complexes with biotinylated prodomain or biotinylated GF captured on anti-BMP-7 GF mAb; bound prodomain or GF detected with SA-HRP (biotinylated prodomain preparation also added as preformed complex with SA-HRP); 0.1% Tween-20 in all incubations; Kd from modeling of the concentration dependence; conditions: both partners purified
T2 construct: prodomain of human bone morphogenetic protein 7 (BMP-7); 90% pure, with about 10% unprocessed BMP-7; also called biotinylated prodomain; source: CHO cells; soluble BMP-7 biotinylated, prodomain eluted from Zn-chelating Sepharose with 50 mM imidazole
T2 sequence (P18075 30-292): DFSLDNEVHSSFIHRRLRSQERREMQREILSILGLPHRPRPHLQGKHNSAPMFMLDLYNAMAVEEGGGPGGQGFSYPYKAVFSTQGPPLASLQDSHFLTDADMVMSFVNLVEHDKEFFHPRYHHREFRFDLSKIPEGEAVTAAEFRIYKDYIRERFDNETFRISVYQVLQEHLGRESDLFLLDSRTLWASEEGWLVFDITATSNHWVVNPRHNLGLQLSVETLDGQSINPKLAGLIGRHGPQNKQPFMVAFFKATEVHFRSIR

Kd [1] [nM] | Kd [2] [nM] | Binder
0.03 | – | anti-Müllerian hormone growth factor (AMH GF), the mature C-terminal domain (ligand, human, UniProt P03971 452-560, looked up, C-terminal growth factor (GF) domain of human AMH, the mature product of cleavage at the monobasic site (R451); Disulfide-linked homodimer; also called mature GF; C-terminal GF; source: in the prodomain/GF rows it is the GF part of c-AMH (CHO cells, plasmin cleaved)) SAGATAADGPCALRELSVDLRAERSVLIPETYQANNCQGVCGWPQSDRNPRYGNHVVLLLKMQVRGAALARPPCCVPTAYAGKLLISLSEERISAHHVPNMVATECGCR
– | 0.1 to 0.2 | mature BMP-7 growth factor (unmodified mature domain) (ligand, human, UniProt P18075 293-431, looked up, mature growth factor (GF) domain of human BMP-7; also called BMP-7 GF; source: CHO cells; mature BMP-7 eluted from Zn-chelating Sepharose with 6 M urea) STGSKQRSQNRSKTPKNQEALRMANVAENSSSDQRQACKKHELYVSFRDLGWQDWIIAPEGYAAYYCEGECAFPLNSYMNATNHAIVQTLVHFINPETVPKPCCAPTQLNAISVLYFDDSSNVILKKYRNMVVRACGCH

Reference: publication PMC8801479, “The anti-Müllerian hormone prodomain is displaced from the hormone/prodomain complex upon bivalent binding to the hormone receptor” (The Journal of Biological Chemistry, 2021)
